Reference: US20210308211A1, “METHOD OF TREATING VIRAL INFECTIONS” (priority 2020, published 2021)
Non-standard residues stand in square brackets, D forms with d. Residues, ends and D or L forms follow the SMILES beside them. No end group written: not given here. Met(O) = CS(=O)CC[C@H](N)C(=O)O; pS = N[C@@H](COP(=O)(O)O)C(=O)O

Columns and labels:
[1] = test system: MRL/lpr mice; experiment: Survival analysis in MRL/lpr lupus mice; type: in vivo, mouse; conditions: female MRL/lpr mice, intravenous, 20 mice per group; NaCl control 25 weeks
Procedure: It has been determined that this mouse strain carries a mutation in the fas gene. Also, the MRL/lpr is a useful model to study behavioural and cognitive deficits found in autoimmune diseases and the efficacy of immunosuppressive agents [Monneaux et al., 2003, Eur. J. Immunol. 33, 287-296].
Five-week-old female MRL/lpr mice received P140 or peptide P140(MO) intravenously as described (Monneaux et al., 2003, Eur. J. Immunol. 33, 287-296). All experimental protocols were carried out with the approval of the local Institutional Animal Care and Use Committee (CREMEAS). As control, mice were injected with NaCl.
Twenty mice were used for each peptide or NaCl.
Statistical tests were performed using GraphPad Prism version 5.0. The two-way ANOVA test was used to analyze statistical significance of proteinuria differences between control and peptide-treated groups of mice. Survival of control and P140 analogue-treated female MRL/lpr mice was analyzed by the Kaplan-Meier method, and the significance of differences was determined by the log-rank test. For the other variables, statistical significance was assessed using the Student's t-test. p values less than 0.05 were considered significant.

[2] = test system: MRL/lpr mice; experiment: Proteinuria analysis in MRL/lpr mice (Albustix); type: in vivo, mouse; conditions: compared to the untreated mice
Procedure: Proteinuria of the above mice was measured in fresh urine using Albustix (Bayer Diagnostics) and was semi-quantitatively estimated according to a […] recommended by the manufacturer (no proteinuria=0; traces=1; 1+=2; 2+=3; 3+=4; 4+=5).

[3] = test system: MRL/lpr mice; experiment: Cellularity analysis of peripheral blood in MRL/lpr mice; type: in vivo, mouse; conditions: 100 μg/100 μL single injection, 5 days after
Procedure: MRL/lpr mice were injected with 100 μg/100 μL of P140 or P140(MO) and cellularity (preipheral blood) was studied 5 days after this unique injection. The count includes all the leucocytes. In view of the low number of tested mice, a non parametric statistical test has been realised Mann-Whitney).

[4] = target: T1, HSC70 protein (Bos taurus, UniProt P19120); experiment: BIAcore binding of peptides to immobilized HSC70; set-up: species or system bovine
T1 construct: purchased Stressgen
Procedure: BIAcore 3000 system (Biacore AB) was used to evaluate the binding of P140 peptides to HSC70 protein (Page et al., 2009, and 2011). Sensor chip CM5, surfactant P20, amine coupling kit containing N-hydroxysuccinimide (NHS) and N-ethyl-N′-dimethylaminopropyl carbodiimide (EDC), 2-(2-pyridinyldithio)ethaneamine (PDEA) and ethanolamine were from Biacore AB. Biosensor assays were performed with HBS-EP buffer as running buffer (10 mM HEPES, 150 mM NaCl, 3 mM EDTA, 0.005% surfactant P20, pH 7.4). The compounds were diluted in the running buffer. The sensor chip surface was regenerated after each experiment by injecting 10 μL of 10 mM HCl. Recombinant bovine HSC70 (Stressgen) was immobilized on flow cells of a CM5 sensor chip through its thiol groups using 35 μL PDEA in 50 mM borate buffer, pH 8.3 on the NHS/EDC-activated matrix. Then, 35 μL of HSC70 (100 μg/mL in formate buffer, pH 4.3) were injected until a response of 13,000 response units (RU) corresponding to 13 ng/mm^2 of HSC70 was immobilized. Twenty μL of a 50 mM cysteine/1 M NaCl solution was used to saturate unoccupied sites on the chip. The direct binding measurement of P140 peptides to HSC70 was carried out at 25° C. with a constant flow rate of 20 μL/min. P140 peptide and analogues were injected in the flux at different concentrations for 3 min, followed by a dissociation phase of 3 min. The kinetic parameters were calculated using the BIAeval 3.1 software on a personal computer. Analysis was performed using the simple 1:1 Langmuir binding model. The specific binding profiles were obtained after subtracting the response signal from the control empty channel and from blank-buffer injection. The fitting to each model was judged by the χ^2 value and randomness of residue distribution compared to the theoretical model.

[5] = target: Recombinant bovine HSC70 (Stressgen) (bovine) (UniProt P19120); experiment: SPR, BIAcore 3000; HSC70 immobilised, peptide injected at 25 µM; 1:1 Langmuir fit
[6] = target: Recombinant bovine HSC70 (Stressgen) (bovine) (UniProt P19120); experiment: SPR, BIAcore 3000; HSC70 immobilised, peptide injected at 12.5 µM; 1:1 Langmuir fit
[7] = target: Recombinant bovine HSC70 (Stressgen) (bovine) (UniProt P19120); experiment: SPR, BIAcore 3000; HSC70 immobilised, peptide injected at 3.12 µM; 1:1 Langmuir fit
[8] = target: Recombinant bovine HSC70 (Stressgen) (bovine) (UniProt P19120); experiment: SPR, BIAcore 3000; HSC70 immobilised, peptide injected at 6.25 µM; 1:1 Langmuir fit
[9] = target: Recombinant bovine HSC70 (Stressgen) (bovine) (UniProt P19120); experiment: SPR, BIAcore 3000; HSC70 immobilised, peptide injected at 1.56 µM; 1:1 Langmuir fit
[10] = target: Recombinant bovine HSC70 (Stressgen) (bovine) (UniProt P19120); experiment: SPR, BIAcore 3000; HSC70 immobilised, peptide injected; 1:1 Langmuir fit; row for analyte at 25 µM
[11] = target: Recombinant bovine HSC70 (Stressgen) (bovine) (UniProt P19120); experiment: SPR, BIAcore 3000; HSC70 immobilised, peptide injected; 1:1 Langmuir fit; row for analyte at 1.56 µM
[12] = target: Recombinant bovine HSC70 (Stressgen) (bovine) (UniProt P19120); experiment: SPR, BIAcore 3000; HSC70 immobilised, peptide injected; 1:1 Langmuir fit; row for analyte at 12.5 µM
[13] = target: Recombinant bovine HSC70 (Stressgen) (bovine) (UniProt P19120); experiment: SPR, BIAcore 3000; HSC70 immobilised, peptide injected; 1:1 Langmuir fit; row for analyte at 3.12 µM
[14] = target: Recombinant bovine HSC70 (Stressgen) (bovine) (UniProt P19120); experiment: SPR, BIAcore 3000; HSC70 immobilised, peptide injected; 1:1 Langmuir fit; row for analyte at 6.25 µM

T1 sequence (P19120 whole entry): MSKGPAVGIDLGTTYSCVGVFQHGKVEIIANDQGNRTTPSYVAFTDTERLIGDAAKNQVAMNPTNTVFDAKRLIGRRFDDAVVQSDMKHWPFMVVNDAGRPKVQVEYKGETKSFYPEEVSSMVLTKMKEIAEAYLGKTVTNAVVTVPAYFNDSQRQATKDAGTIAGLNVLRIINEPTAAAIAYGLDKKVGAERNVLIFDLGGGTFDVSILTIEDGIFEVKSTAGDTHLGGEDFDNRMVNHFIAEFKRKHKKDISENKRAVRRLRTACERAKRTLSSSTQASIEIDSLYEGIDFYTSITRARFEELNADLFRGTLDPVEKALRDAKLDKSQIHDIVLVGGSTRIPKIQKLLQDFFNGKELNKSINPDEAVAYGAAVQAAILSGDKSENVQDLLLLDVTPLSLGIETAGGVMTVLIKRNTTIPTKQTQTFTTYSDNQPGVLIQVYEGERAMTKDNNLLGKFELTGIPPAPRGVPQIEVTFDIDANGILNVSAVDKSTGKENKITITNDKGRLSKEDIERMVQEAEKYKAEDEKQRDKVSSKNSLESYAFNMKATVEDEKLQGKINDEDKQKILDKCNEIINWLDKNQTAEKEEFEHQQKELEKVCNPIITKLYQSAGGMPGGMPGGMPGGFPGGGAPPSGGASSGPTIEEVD
Chain of Recombinant bovine HSC70 (Stressgen) (bovine) (P19120 whole entry): as above

Req [5] [RU] | kobs [5] [s⁻¹] | Req [6] [RU] | kobs [6] [s⁻¹] | Req [7] [RU] | kobs [7] [s⁻¹] | Req [8] [RU] | kobs [8] [s⁻¹] | Req [9] [RU] | kobs [9] [s⁻¹] | Ka [10] [M⁻¹] | Kd [10] [µM] | koff [10] [s⁻¹] | Ka [11] [M⁻¹] | Kd [11] [µM] | koff [11] [s⁻¹] | Ka [12] [M⁻¹] | Kd [12] [µM] | koff [12] [s⁻¹] | Ka [13] [M⁻¹] | Molecule | further results
– | – | – | – | – | – | – | – | – | – | – | – | – | – | – | – | – | – | – | – | CC[C@H](C)[C@H](NC(=O)[C@H](Cc1ccccc1)NC(=O)[C@H](C)NC(=O)[C@H](Cc1ccc(O)cc1)NC(=O)CNC(=O)[C@H](CCCNC(=N)N)NC(=O)[C@@H]1CCCN1C(=O)[C@H](CCCCN)NC(=O)CNC(=O)[C@H](COP(=O)(O)O)NC(=O)[C@H](CCCNC(=N)N)NC(=O)[C@H](CCCCN)NC(=O)[C@H](CO)NC(=O)[C@H](Cc1ccc(O)cc1)NC(=O)[C@@H](NC(=O)[C@H](CC[S+](C)[O-])NC(=O)[C@H](Cc1c[nH]cn1)NC(=O)[C@@H](NC(=O)[C@@H](N)CCCNC(=N)N)[C@@H](C)CC)C(C)C)C(=O)N[C@@H](CCC(=O)O)C(=O)N[C@@H](Cc1ccc(O)cc1)C(=O)O (stereo partly drawn) [P140(MO), RIHM(O)VYSKRS(PO3H2)GKPRGYAFIEY] (H-RIH[Met(O)]VYSKR[pS]GKPRGYAFIEY-OH) | Median survival [1]: > 40 weeks; Proteinuria [2]: less important and appears lately; Peripheral hypercellularity [3]: decrease peripheral hypercellularity; Rmax (RU) ([4]; 25° C., 1:1 Langmuir model): 39 RU; kon ([4]; 25° C., 1:1 Langmuir model, analyte 1.56-25 μM, read-out: ka): 1150 M⁻¹ s⁻¹; Affinity for HSC70, oxidized vs non-oxidized peptide (in words) ([4]; P140 compared with P140 M(O)): not statistically different; Req (RU) ([4]; peptide 1.56 μM): 17.6 RU; Req (RU) ([4]; peptide 3.12 μM): 24.2 RU; Req (RU) ([4]; peptide 6.25 μM): 29.9 RU; Req (RU) ([4]; peptide 12.5 μM): 33.9 RU; kobs ([4]; peptide 12.5 μM): 0.0166 s⁻¹; Req (RU) ([4]; peptide 25 μM): 36.3 RU; kobs ([4]; peptide 25 μM): 0.031 s⁻¹
65.2 | 0.0144 | 53.6 | 0.00874 | 25.8 | 0.00452 | 39.5 | 0.00593 | 15.3 | 0.00382 | 144000 | 6.94 | 0.00312 | 144000 | 6.94 | 0.00312 | 144000 | 6.94 | 0.00312 | 144000 | RIHMVYSKR[pS]GKPRGYAFIEY [P140 peptide (SEQ ID NO: 1 in which serine at position 10 is phosphorylated; SEQ ID NO: 4)] | Kd [13]: 6.94 µM; koff [13]: 0.00312 s⁻¹; Ka [14]: 144000 M⁻¹; Kd [14]: 6.94 µM; koff [14]: 0.00312 s⁻¹
36.3 | 0.031 | 33.9 | 0.0166 | 24.2 | 0.0058 | 29.9 | 0.0094 | 17.6 | 0.004 | 524000 | 1.91 | 0.0022 | 524000 | 1.91 | 0.0022 | 524000 | 1.91 | 0.0022 | 524000 | RIH[Met(O)]VYSKR[pS]GKPRGYAFIEY | Kd [13]: 1.91 µM; koff [13]: 0.0022 s⁻¹; Ka [14]: 524000 M⁻¹; Kd [14]: 1.91 µM; koff [14]: 0.0022 s⁻¹
